From US20250002563A1 (UNIVERSITY OF PITTSBURGH OF THE COMMONWEALTH SYSTEM OF …, published 2025)
Substitutions are numbered along the chain they refer to.

Legend:
[1] = biological target: recombinant RBD of the SARS-CoV-2 S protein (Example 1) (SARS-CoV-2, UniProt P0DTC2 319-541); assay: SPR, RBD immobilized on CM5
[2] = biological target: SARS-CoV-2 spike on pseudotyped virus particles (Wuhan-Hu-1 strain) (SARS-CoV-2, UniProt P0DTC2 14-1273); assay: cell-based or functional assay
[3] = biological target: T1, RBDSARS-CoV (SARS-CoV S protein residues 318-510, C-terminal His-tag) (SARS-CoV, UniProt P59594 318-510); assay: SPR, RBD immobilized on CM5
[4] = biological target: T2, RBDSARS-CoV-2 (SARS-CoV-2 S protein residues 319-539, C-terminal His-tag) (SARS-CoV-2, UniProt P0DTC2 319-539); assay: SPR, RBD immobilized on CM5
[5] = biological target: T1, RBDSARS-CoV (SARS-CoV S protein …); assay: ELISA
[6] = biological target: T2, RBDSARS-CoV-2 (SARS-CoV-2 S protein …); assay: ELISA
[7] = biological target: spike of SARS-CoV-2 Munich strain (authentic virus) (SARS-CoV-2); assay: cell-based or functional assay

B1: Nb89 (VHH)
VHH: HVQLVESGGGLVQAGGSLRLSCAASGGTFTTFRMAWFRQTPGKEREFVAASSWGFVNYADPVKGRFTISRDNAKNTVYLEMSSLKTEDTAVYYCAARNPGTGQYDYWGQGTQVTVSS
- Kd [1]: 0.108 nM
- IC50, pseudotyped SARS-CoV-2 neutralization assay (luciferase) [2]: 0.129 nM

B2: 5p-118 (VHH)
VHH: QVQLVESGGGLVQAGESLRLSCAASKPTFRNFAAGWFRQTPGKDREFVAVIEYDGDSAYYADSVKGRFTISRDNAKNTVYLQMNRLKPGDTAVYICAIGGNHYDPSKYYTADEYDYWGQGTQVTVSS
notes: class II(B) psNb
- Kd [3]: 0.00396 nM
- Kd [4]: < 0.001 nM
- IC50 [5]: < 10 nM
- IC50 [6]: < 10 nM
- PRNT SARS-CoV-2 Munich IC50 [7]: 7.41 nM

B3: 5p-132 (VHH)
VHH: QVQLVESGGGLVQAGGSLRLSCTASGYDFSILAIAWYRQAPGKERELVAAISRVGSTDYADSVKGRFTISRDNTKNTVSLQMDSLKPEDTAVYYCNAGIPMTTVLSGLGFWGQGTQVTVSS
notes: class IV psNb
- Kd [3]: 304 nM
- Kd [4]: 0.39 nM
- IC50 [6]: < 10 nM

B4: 5p-60 (VHH)
VHH: QVQLVESGGGLVQAGGSLRLSCAVSGRTISTFGMGWFRQAPGKEREFVATITRDEDMLLYADSVKGRFTISRDTAKNMVFLQMNSLKIEDTALYYCAVRRDSSWGYSRQSTEYDYWGQGTQVTVSS
notes: class II(A) psNb
- IC50 [5]: < 10 nM
- IC50 [6]: < 10 nM
- PRNT SARS-CoV-2 Munich IC50 [7]: 9.79 nM

B5: 5p-38 (VHH)
VHH: QVQLVESGGGLVQAGGSLRLSCAAAARFSTSAMGWFRQAPGKEREFVAAISWSNTNTHYADTVKGRFTISADTAKETVDLQMNSLKPEDTAVYYCVQGGWGIRQPIIVDYWGKGTQVTVSS
notes: class II(B) psNb
- IC50 [5]: < 10 nM
- IC50 [6]: < 10 nM
- PRNT SARS-CoV-2 Munich IC50 [7]: 59.9 nM

B6: 5p-35 (VHH)
VHH: HVQLVESGGGLVQAGGSLRLSCAASGRTFSRYAAGWFRQAPGKEREFVAVIEWDGDSAYYADPVKGRFTISRDNAKNTVYLQMNRLKPEDTAVYICAVGGNHYSRSKYYNLDEYDDWGQGTQVTVSS
notes: class II(B) psNb
- IC50 [5]: < 10 nM
- IC50 [6]: < 10 nM
- PRNT SARS-CoV-2 Munich IC50 [7]: 42.2 nM

B7: Nb20 (VHH)
VHH: QVQLVESGGGLVQAGGSLRLSCAVSGAGAHRVGWFRRAPGKEREFVAAIGASGGMTNYLDSVKGRFTISRDNAKNTIYLQMNSLKPQDTAVYYCAARDIETAEYIYWGQGTQVTVSS
- IC50, pseudotyped SARS-CoV-2 neutralization assay (luciferase) [2]: 0.102 nM

B8: Nb21 (VHH)
VHH: B7 VHH with A27L, S52N, M55N, I105T
- IC50, pseudotyped SARS-CoV-2 neutralization assay (luciferase) [2]: 0.045 nM
